How the values were obtained:
[1] = target: T1, linear (M1-linked) tetraubiquitin (UniProt P0CG48 1-76; P0CG48 1-76; P0CG48 1-76; P0CG48 1-76); test: crystal structure; OPTN CC2-UBAN (416–510) crystallised with linear tetraubiquitin, hanging drop, 16% PEG 3350, 250 mM HCOOK, 20 °C; 2.7 Å; details: both partners purified
T1 construct: ubiquitin, first unit of four joined head to tail (M1-linked); ubiquitin, second unit; ubiquitin, third unit; ubiquitin, fourth unit; also called linear tetraubiquitin; linear tetra-ubiquitin; source: E. coli, purified (heat treatment, HiTrap SP, Superdex 200)

[2] = target: the molecule itself; test: as above

T1 sequence (P0CG48 1-304, one chain of several): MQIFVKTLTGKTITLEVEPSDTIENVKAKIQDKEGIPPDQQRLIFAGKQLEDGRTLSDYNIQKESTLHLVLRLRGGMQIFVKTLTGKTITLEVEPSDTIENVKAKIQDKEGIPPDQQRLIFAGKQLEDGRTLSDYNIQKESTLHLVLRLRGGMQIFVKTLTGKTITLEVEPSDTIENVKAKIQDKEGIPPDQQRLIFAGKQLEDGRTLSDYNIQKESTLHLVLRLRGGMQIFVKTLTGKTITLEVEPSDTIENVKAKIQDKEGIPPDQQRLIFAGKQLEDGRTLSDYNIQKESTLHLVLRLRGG

B1: human OPTN CC2-UBAN region (residues 416–510) (domain or fragment, UniProt Q96CV9 416-510, looked up)
chain: EKVDRAVLKELSEKLELAEKALASKQLQMDEMKQTIAKQEEDLETMTILRAQMEVYCSDFHAERAAREKIHEEKEQLALQLAVLLKENDAFEDGG
notes: residues 445-505 modelled for the longest chain; GST was cut off with Turbo3C (HRV3C) protease; also called OPTN-UBAN; source: E. coli Rosetta 2 (DE3), purified (glutathione Sepharose 4B, on-column cleavage, Resource Q, Superdex 75)
- binding result [1]: binds
- stoichiometry N [2]: 2
